Columns and labels:
[1] = biological target: SNAP complex (SNAPc) immobilized on Strep-Tactin beads, Q5SXM2;Q92966;Q13487;Q16533;O75971; assay: pull-down on immobilized SNAPc, immunoblot quantification; conditions: chain shown with the change
[2] = biological target: SNAP complex (SNAPc), Q5SXM2;Q92966;Q13487;Q16533;O75971; assay: Flag-bead pull-down, immunoblot quantification; conditions: chain shown with the change

| Binder | ratio to parent [1] | ratio to parent [2] |
| --- | --- | --- |
| TFIIB, full-length human, Flag- and His-tagged, Q00403 V245A; P246A; G247A; R248A; S249A (protein) MASTSRLDALPRVTCPNHPDAILVEDYRAGDMICPECGLVVGDRVIDVGSEWRTFSNDKATKDPSRVGDSQNPLLSDGDLSTMIGKGTGAASFDEFGNSKYQNRRTMSSSDRAMMNAFKEITTMADRINLPRNIVDRTNNLFKQVYEQKSLKGRANDAIASACLYIACRQEGVPRTFKEICAVSRISKKEIGRCFKLILKALETSVDLITTGDFMSRFCSNLCLPKQVQMAATHIARKAVELDLAAAAAPISVAAAAIYMASQASAEKRTQKEIGDIAGVADVTIRQSYRLIYPRAPDLFPTDFKFDTPVDKLPQL | 0.57 | – |
| TFIIB, full-length human, Flag- and His-tagged, Q00403 R185A; K188A; K189A (protein) MASTSRLDALPRVTCPNHPDAILVEDYRAGDMICPECGLVVGDRVIDVGSEWRTFSNDKATKDPSRVGDSQNPLLSDGDLSTMIGKGTGAASFDEFGNSKYQNRRTMSSSDRAMMNAFKEITTMADRINLPRNIVDRTNNLFKQVYEQKSLKGRANDAIASACLYIACRQEGVPRTFKEICAVSAISAAEIGRCFKLILKALETSVDLITTGDFMSRFCSNLCLPKQVQMAATHIARKAVELDLVPGRSPISVAAAAIYMASQASAEKRTQKEIGDIAGVADVTIRQSYRLIYPRAPDLFPTDFKFDTPVDKLPQL | 0.04 | – |
| TFIIB, full-length human, Flag- and His-tagged, Q00403 R169E (protein) MASTSRLDALPRVTCPNHPDAILVEDYRAGDMICPECGLVVGDRVIDVGSEWRTFSNDKATKDPSRVGDSQNPLLSDGDLSTMIGKGTGAASFDEFGNSKYQNRRTMSSSDRAMMNAFKEITTMADRINLPRNIVDRTNNLFKQVYEQKSLKGRANDAIASACLYIACEQEGVPRTFKEICAVSRISKKEIGRCFKLILKALETSVDLITTGDFMSRFCSNLCLPKQVQMAATHIARKAVELDLVPGRSPISVAAAAIYMASQASAEKRTQKEIGDIAGVADVTIRQSYRLIYPRAPDLFPTDFKFDTPVDKLPQL | – | 0.32 |
| TFIIB, full-length human, Flag- and His-tagged, Q00403 R169E; K188E (protein) MASTSRLDALPRVTCPNHPDAILVEDYRAGDMICPECGLVVGDRVIDVGSEWRTFSNDKATKDPSRVGDSQNPLLSDGDLSTMIGKGTGAASFDEFGNSKYQNRRTMSSSDRAMMNAFKEITTMADRINLPRNIVDRTNNLFKQVYEQKSLKGRANDAIASACLYIACEQEGVPRTFKEICAVSRISEKEIGRCFKLILKALETSVDLITTGDFMSRFCSNLCLPKQVQMAATHIARKAVELDLVPGRSPISVAAAAIYMASQASAEKRTQKEIGDIAGVADVTIRQSYRLIYPRAPDLFPTDFKFDTPVDKLPQL | – | 0.13 |
| TFIIB, full-length human, Flag- and His-tagged, Q00403 S205A; V206A; D207A; L208A; I209A (protein) MASTSRLDALPRVTCPNHPDAILVEDYRAGDMICPECGLVVGDRVIDVGSEWRTFSNDKATKDPSRVGDSQNPLLSDGDLSTMIGKGTGAASFDEFGNSKYQNRRTMSSSDRAMMNAFKEITTMADRINLPRNIVDRTNNLFKQVYEQKSLKGRANDAIASACLYIACRQEGVPRTFKEICAVSRISKKEIGRCFKLILKALETAAAAATTGDFMSRFCSNLCLPKQVQMAATHIARKAVELDLVPGRSPISVAAAAIYMASQASAEKRTQKEIGDIAGVADVTIRQSYRLIYPRAPDLFPTDFKFDTPVDKLPQL | 0.54 | – |

— publication PMC6004067
